Assay [1] deals with T1, full length aryl hydrocarbon receptor (AHR) translated in reticulocyte lysate (pSportAHR) (UniProt P30561 1-805, limits assumed).
T1 construct: also called Ah receptor; radiolabeled AHR
T1 sequence (looked up): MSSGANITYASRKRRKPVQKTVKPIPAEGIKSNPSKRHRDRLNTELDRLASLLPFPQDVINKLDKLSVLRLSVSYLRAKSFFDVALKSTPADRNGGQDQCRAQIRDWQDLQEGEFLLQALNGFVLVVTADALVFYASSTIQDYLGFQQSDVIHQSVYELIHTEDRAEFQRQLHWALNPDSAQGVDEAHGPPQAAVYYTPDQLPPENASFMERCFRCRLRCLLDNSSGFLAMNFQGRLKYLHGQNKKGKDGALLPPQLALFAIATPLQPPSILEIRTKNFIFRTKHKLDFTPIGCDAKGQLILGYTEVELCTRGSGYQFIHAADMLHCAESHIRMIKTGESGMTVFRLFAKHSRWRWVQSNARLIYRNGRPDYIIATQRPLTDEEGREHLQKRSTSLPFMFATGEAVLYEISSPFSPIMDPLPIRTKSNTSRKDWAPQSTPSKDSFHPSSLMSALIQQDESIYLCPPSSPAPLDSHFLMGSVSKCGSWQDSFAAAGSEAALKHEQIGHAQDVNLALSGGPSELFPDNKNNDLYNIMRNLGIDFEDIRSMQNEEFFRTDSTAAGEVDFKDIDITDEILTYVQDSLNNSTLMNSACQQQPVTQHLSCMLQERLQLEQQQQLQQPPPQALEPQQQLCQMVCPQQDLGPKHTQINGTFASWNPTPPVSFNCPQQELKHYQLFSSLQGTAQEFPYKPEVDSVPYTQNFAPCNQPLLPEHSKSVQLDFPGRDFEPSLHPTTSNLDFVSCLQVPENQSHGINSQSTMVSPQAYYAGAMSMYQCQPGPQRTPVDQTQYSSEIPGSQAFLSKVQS
The assay can be described thus: co-immunoprecipitation of 35S-labeled AHR with T7-agarose, bands quantified with a phosphoimager. The method, then: (§1) The bacterial expression of FKBP52 and ARA9 was confirmed by SDS-PAGE followed by both Coomassie stain and western blot analysis with an anti-T7 peptide antibody (Novagen). Immunoprecipitations of complexes with either AHR- or Hsp90 were performed in MENG buffer as above, using anti-T7 agarose (Novagen). The complexes were then precipitated and analyzed by SDS-PAGE and autoradiography.
(§2) Figure 3A: FIG. 3A (Top). AHR was translated in reticulocyte lysates in the presence of ^35S-methionine. Labeled proteins were then incubated in the presence of T7 tagged ARA9, T7 tagged FKBP52 or untransformed BL21 extract and complexes were separated and visualized as above. "Input" lanes represent 25% of total protein (AHR or Hsp90) used in experiments. Bottom: The bands radioactivity present in the AHR or Hsp90 bands was quantified using a phosphoimager to make comparisons of relative coimmunoprecipitation. The bars represent the means from three independent experiments. The error bars indicate the standard error of the mean. Figure 3B: FIG. 3B. Hsp90 was used in a similar experiment described in FIG. 3A.
(§3) Specificity of ARA9 for AHR: The structural similarity between ARA9 and FKBP52 led us to compare the relative capacity of these two factors to bind AHR. […] The AHR-ARA9 or AHR-FKBP52 associations were determined by coimmunoprecipitation with T7-agarose. […]

In a further assay the target is T2, Hsp90.
T2 construct: also called radiolabeled Hsp90; 35S labeled Hsp90
The assay is described as follows: co-immunoprecipitation of 35S labeled Hsp90 with T7-agarose, bands quantified with a phosphoimager. The method, then: as §1, §2, §3

B1: T7 tagged full length ARA9 expressed in bacteria (pET17b-ARA9, PL799) (other)
chain: MASMTGGQQMGMADIIARLREDGIQKRVIQEGRGELPDFQDGTKATFHYRTLHSDDEGTVLDDSRARGKPMELIIGKKFKLPVWETIVCTMREGEIAQFLCDIKHVVLYPLVAKSLRNIAVGKDPLEGQRHCCGVAQMREHSSLGHADLDALQQNPQPLIFHMEMLKVESPGTYQQDPWAMTDEEKAKAVPLIHQEGNRLYREGHVKEAAAKYYDAIACLKNLQMKEQPGSPEWIQLDQQITPLLLNYCQCKLVVEEYYEVLDHCSSILNKYDDNVKAYFKRGKAHAAVWNAQEAQADFAKVLELDPALAPVVSRELRALEARIRQKDEEDKARFRGIFSH
notes: Expressed in BL21(DE3); also called T7-tagged ARA9; FL
In the case of B1, the “efficiency at precipitating AHR relative to FKBP52” value in assay [1] was approximately 4 times.

B2: T7 tagged FKBP52 expressed in bacteria (pET17b-FKBP52, PL947) (other)
chain: MASMTGGQQMGMTAEEMKAAESGAQSAPLPLEGVDISPKQDEGVLKVIKREGTGTETPMIGDRVFVHYTGWLLDGTKFDSSLDRKDKFSFDLGKGEVIKAWDIAVATMKVGELCRITCKPEYAYGSAGSPPKIPPNATLVFEVELFEFKGEDLTDDEDGGIIRRIRTRGEGYARPNDGAIVEVALEGYYKDRLFDQRELRFEVGEGESLDLPCGLEKAIQRMEKGEHSILYLKPSYAFGNAGKEKFQIPPYAELKYEVHLKSFEKAKESWEMSSEEKLEQSAIVKERGTVYFKEGKYKQALLQYKKIVSWLEYESSFSSEEVQKAQALRLASHLNLAMCHLKLQAFSAAVESCNKALELDSNNEKGLFRRGEAHLAVNDFDLARADFQKVLQLYPSNKAAKAQLAVCQQRIRKQIAREKKLYANMFERLAEEENKAKAEVAAGDHPMDTEMKDERNDVAGSQSQVETEA
Take B2: in the assay with Hsp90, the “capacity to interact with Hsp90 relative to ARA9” value worked out at 4 fold.

These data come from patent publication US6432692 (WISCONSIN ALUMNI RESEARCH FOUNDATION, dated 2002).
